# Laboratory results: publication PMC5465077
# Target: Her2 on SKBR3 cells (human (endogenous in SKBR3)) (UniProt P04626)
# Test: flow cytometry on cells; 200,000 SKBR3 cells per sample incubated on ice for 60 min with serial dilutions of antibody or ADC in FACS buffer (DPBS, 1% BSA); detected with Alexa 647 goat anti-human IgG; mean fluorescence intensities fitted with a one-site specific binding equation
substance,measurement,value
Trastuzumab^CF MMAF (AB4285) LC-S7 (antibody),Kd,7.6 nM
